Assay results published in patent publication US20230250176A1 (DRAGONFLY THERAPEUTICS, published 2023).

T1: human NKG2D on cells (human, UniProt P26718 1-216)
T1 construct: whole, on cells; also called NKG2D on KHYG-1 parental cells; NKG2D on CD8+ T cells and NK cells
T1 sequence (looked up): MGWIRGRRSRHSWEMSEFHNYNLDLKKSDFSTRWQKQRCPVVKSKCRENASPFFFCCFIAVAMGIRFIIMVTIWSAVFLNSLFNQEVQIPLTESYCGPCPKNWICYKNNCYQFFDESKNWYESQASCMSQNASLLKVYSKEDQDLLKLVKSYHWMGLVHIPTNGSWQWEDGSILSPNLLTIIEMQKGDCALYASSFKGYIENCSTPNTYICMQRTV


Columns and labels:
[1] = target: T2, mouse Tyrp1 on B16F10 and CT26-Tyrp1 cells (mouse, UniProt P07147 25-537); experiment: flow cytometry on CT26-Tyrp1 cells, anti-mouse IgG-Fc secondary, MFI minus background, 4-parameter fit
T2 construct: whole, on cells

[2] = target: T2, mouse Tyrp1 on B16F10 and CT26-Tyrp1 …; experiment: flow cytometry on B16F10 cells, anti-mouse IgG-Fc secondary, MFI minus background, 4-parameter fit
[3] = target: purified recombinant rat EGFR (rat, UniProt A0ABK0LZB0 35-651); experiment: SPR (Biacore 8K), 37 C
Protocol: (§1) Measurements were performed at physiological temperature of 37° C. using a Biacore8K SPR system.

[4] = target: purified recombinant mouse EGFR (mouse, UniProt Q01279 25-647, limits assumed); experiment: SPR (Biacore 8K), 37 C
Protocol: as §1

human NKG2D on cells = target: T1, human NKG2D on cells; experiment: flow cytometry, AF647-conjugated test article on KHYG-1 parental cells (NKG2D+, CD16a-)

Row | Binder | EC50 [1] [nM] | EC50 [2] [nM] | binding result [3] | binding result [4] | binding result (human NKG2D on cells)
1 | TA99 (antibody, V domains shown) VH: EVQLQQSGAELVRPGALVKLSCKTSGFNIKDYFLHWVRQRPDQGLEWIGWINPDNGNTVYDPKFQGTASLTADTSSNTVYLQLSGLTSEDTAVYFCTRRDYTYEKAALDYWGQGASVIVSS VL: DIQMSQSPASLSASVGETVTITCRASGNIYNYLAWYQQKQGKSPHLLVYDAKTLADGVPSRFSGSGSGTQYSLKISSLQTEDSGNYYCQHFWSLPFTFGSGTKLEIK | 14.6 | 11 | – | – | –
2 | panitumumab (antibody, IgG2, V domains shown) VH: QVQLQESGPGLVKPSETLSLTCTVSGGSVSSGDYYWTWIRQSPGKGLEWIGHIYYSGNTNYNPSLKSRLTISIDTSKTQFSLKLSSVTAADTAIYYCVRDRVTGAFDIWGQGTMVTVSS VL: DIQMTQSPSSLSASVGDRVTITCQASQDISNYLNWYQQKPGKAPKLLIYDASNLETGVPSRFSGSGSGTDFTFTISSLQPEDIATYFCQHFDHLPLAFGGGTKVEIK | – | – | no binding | no binding | no binding (tested: 800 nM)
